In this assay the target is Gal4-16.4.1 fusion protein (pBIND-16.4.1) (human). In words: two-hybrid.

“VP16-hCRM1 fusion protein (pACT-hCRM1) (from UniProt O14980 1-1071) (natural protein)” showed an other of 41 fold.
For the substance “VP16-Rev fusion protein (pACT-Rev) (from UniProt P04618 1-116) (natural protein)”, the fold induction of luciferase activity came out at 11 fold.

(Values after article PMC1097722.)
